Values joined by “and” are separate entries in the source; they are usually repeats but may differ in a detail not shown here. Equal entries are not always repeated.

In experiment [1] the target is PA7(LFN)3 complex (heptameric PA oligomer with three LFN) (Bacillus anthracis).
Experiment [2] concerns the target PA8(LFN)4 complex (octameric PA oligomer with four LFN) (Bacillus anthracis).
For experiment [3], the target named is PA7(LFN)3 complex (heptameric PA oligomer with three LFN) (Bacillus anthracis). Kind of experiment: native MS.
For experiment [4], the target named is PA8(LFN)4 complex (octameric PA oligomer with four LFN) (Bacillus anthracis). The experiment is described as follows: native MS.
Experiment [5] concerns the target Lethal factor LFN (Bacillus anthracis) (UniProt P15917). To be noted: cited from earlier work.
In experiment [6] the target is protective antigen, proteolytically activated 63-kDa portion (PA63) (Bacillus anthracis). Kind of experiment: native MS.
For experiment [7] the target is unchanged. Kind of experiment: negative-stain electron microscopy.

Regarding “soluble monomeric ANTXR2 extracellular domain (msANTXR2), capillary morphogenesis protein 2 residues 40-217 (from UniProt P58335 40-217) (receptor)”, the pH midpoint of the prechannel-to-channel transition, CD signal at 222 nm, 37°C in experiment [1] and in experiment [2] was 5.8 pH in each case. Besides, the stoichiometry N (msANTXR2 per PA7(LFN)3 complex) in experiment [3] stood at 7. Besides, the stoichiometry N (msANTXR2 per PA8(LFN)4 complex) in experiment [4] is 8.
Consider “Protective antigen (from UniProt P13423)”, for which the Kd in experiment [5] was 1 nM.
For the substance “LF's PA binding domain (LFN, the first 263 residues of LF) (domain or fragment)”, in experiment [6], the stoichiometry N (LFN per PA2 intermediate) worked out at 1, the stoichiometry N (LFN per PA4 intermediate) came out at 2, the stoichiometry N (LFN per PA7 oligomer) amounted to 3 and the stoichiometry N (LFN per PA8 oligomer) came to 4.
“protective antigen, proteolytically activated 63-kDa portion (PA63) (domain or fragment)”: in experiment [6], the stoichiometry N was 4 and 2; the stoichiometry N (PA63 per oligomer) is 8 and 7. For the same substance, the stoichiometry N (PA63 per oligomer) in experiment [7] was 7 and 8.
